In US12551573B2, “Compositions and methods for the targeting of PCSK9” (Scribe Therapeutics Inc., priority 2022, dated 2026):
Changes are numbered by the printed parent chain.

B1: DOMAIN_26749: repressor domain derived from the king cobra, Ophiophagus hannah; SEQ ID NO: 135 (protein)
chain: STPVTFEDVVVYFTAAEWVHLTNWQRDFYQAVMMETYELVASVAGDGVPMAEDEEGGVERPVWQYIPRGKRRRKTPQPRAD
modifications: Ophiophagus hannah
B2: DOMAIN_16246 (protein, listed as Macaca mulatta)
chain: ASVTVTFDDVALYFSEQEWEILEKWQKQMYKQEMKTNYQTLDSLGYAFSKPDLITWMEQGRMLFISEQGCLDKTRRTTSPP
B3: DOMAIN_16566 (protein, listed as Odocoileus virginianus)
chain: HQESLTFKDVAVNFTQEEWHHVDAAQRRLYKDVMLENYSHLVSLGYQVSKPEVIFKLEQGEEPWIAEGEIQRPVCPDWKTR
B4: DOMAIN_16050 (protein)
chain: PLESVTFEDVAVDFTQEEWSLLDKSQKNLFRNVMLETVTHLVSVGYQISKSDVIFQLEQGKELWPEAAGGLQGQSPDEVTP
modifications: Ovis aries
B5: DOMAIN_15638 (protein, listed as Sapajus apella)
chain: MAFEDVAVYFSQEEWGLLDTAQRALYRRVMLDNFALVASLGLSTSRPRVVIQLERGEEPWVPSGTDMTMSRNTHRRRNSGF
B6: DOMAIN_15800 (protein, listed as Otolemur garnettii)
chain: MAFEDVAVYFSQEEWGLLDTAQRALYRHVMLENFTLVSSLGLSTSRPRVVVQLERGEEPWVPSRIDSTPARNAQGRRNPGS
B7: DOMAIN_15839 (protein, listed as Callithrix jacchus)
chain: AQESMTFRDVAVFFSQDEWLHLDSAQRALYREVMLENYSTLVSLGIPFSMPKVIHQLQQGQDPCTVEGDVPSNTCLGFKTW
B8: DOMAIN_16534 (protein, listed as Acinonyx jubatus)
chain: SHGPLSFEDVAVAFTKEEWQQLDPAQRTLYRDVMLENFSHVISLGHPVSKPDVISKLEQGEEPWIIKRDVSDWIYPERETR
B9: DOMAIN_16811 (protein, listed as Balaenoptera acutorostrata)
chain: PQASVSFKDVTVEFTQEEWWQMDSAQRTLYRDVMLENYSHLVSVGYCFTKPELIFMLEQGEDPWLLEKEFVNRSSPEESQP
B10: DOMAIN_15669 (protein, listed as Callorhinus ursinus)
chain: FQDSVTFEDVAVRFSSGEWQCLTRAQRHLYADVMLENYWNVISVGFAVPKPPLISHLEQGAEPCVQDLQDGGFLSCSFPVS
B11: DOMAIN_16461 (protein)
chain: AQESVTFEDVAVNFTDREWQCLTYAQRHLYKDVMLENYGNMVSVGFPFPKPPLISHLERGVELCVQDPQDRESLSCSCLVS
modifications: Cebus imitator
B12: DOMAIN_16556 (protein, listed as Rhinopithecus roxellana)
chain: B11 chain with D16N, C21S, D32H, G39R, V44L, L63P, R71K, C78Y, L79P
B13: DOMAIN_16115 (protein, listed as Bos taurus)
chain: VQGSVSFEDVAVGFSQEEWQILGPSQKALYWDVMLENYCNLVSVGYQAPTPNSLFQLEQGGPPWTVEGAALSSTCSGYQAT
B14: DOMAIN_16611 (protein, listed as Papio anubis)
chain: MAFEDVAVYFSQEEWGLLDTAQRALYRHVMLENFTLVTSLGLSTSRPYVVIQLERGEEPWVPSGKDMTLARNTYRRLNAGS
B15: DOMAIN_16738 (protein)
chain: B14 chain with A21T, Y48H, K65T, M67T, A70S, N72T, L77R, A79P
modifications: Pan troglodytes
B16: DOMAIN_15863 (protein)
chain: CWGLLSFKDISMEFTWEEWQLLDSAQKYLYRDVILENYSHLVSLGYHGTKPDLIFKLEQGEEPWMINARVSRQSYPEGWKE
modifications: Vulpes vulpes
B17: DOMAIN_16694 (protein, listed as Callorhinus ursinus)
chain: SYGSFSFEDVTVGFTQEEWQHLGPAQRILYRDVMLENYSHLVSVGCCIPKPEVILKLEQGEQPWILEEESPSQSYPGLPTD
B18: DOMAIN_29304: one of the nine most effective repressor domains (protein, listed as Peromyscus maniculatus)
chain: VTYNDVHVDITQEEWALMDPSQRNLYKDVMVETYMNLTAIGYNWENLEVEEPCQNPLKHGRHERPHTGEKPYEYNQCGKAFAQP
B19: dCasX491: catalytically-dead CasX variant, SEQ ID NO: 4 (protein)
chain: QEIKRINKIRRRLVKDSNTKKAGKTGPMKTLLVRVMTPDLRERLENLRKKPENIPQPISNTSRANLNKLLTDYTEMKKAILHVYWEEFQKDPVGLMSRVAQPASKKIDQNKLKPEMDEKGNLTTAGFACSQCGQPLFVYKLEQVSEKGKAYTNYFGRCNVAEHEKLILLAQLKPEKDSDEAVTYSLGKFGQRALDFYSIHVTKESTHPVKPLAQIAGNRYASGPVGKALSDACMGTIASFLSKYQDIIIEHQKVVKGNQKRLESLRELAGKENLEYPSVTLPPQPHTKEGVDAYNEVIARVRMWVNLNLWQKLKLSRDDAKPLLRLKGFPSFPLVERQANEVDWWDMVCNVKKLINEKKEDGKVFWQNLAGYKRQEALRPYLSSEEDRKKGKKFARYQLGDLLLHLEKKHGEDWGKVYDEAWERIDKKVEGLSKHIKLEEERRSEDAQSKAALTDWLRAKASFVIEGLKEADKDEFCRCELKLQKWYGDLRGKPFAIEAENSILDISGFSKQYNCAFIWQKDGVKKLNLYLIINYFKGGKLRFKKIKPEAFEANRFYTVINKKSGEIVPMEVNFNFDDPNLIILPLAFGKRQGREFIWNDLLSLETGSLKLANGRVIEKTLYNRRTRQDEPALFVALTFERREVLDSSNIKPMNLIGVARGENIPAVIALTDPEGCPLSRFKDSLGNPTHILRIGESYKEKQRTIQAKKEVEQRRAGGYSRKYASKAKNLADDMVRNTARDLLYYAVTQDAMLIFANLSRGFGRQGKRTFMAERQYTRMEDWLTAKLAYEGLSKTYLSKTLAQYTSKTCSNCGFTITSADYDRVLEKLKKTATGWMTTINGKELKVEGQITYYNRYKRQNVVKDLSVELDRLSEESVNNDISSWTKGRSGEALSLLKKRFSHRPVQEKFVCLNCGFETHAAEQAALNIARSWLFLRSQEYKKYQTNKTTGNTDKRAFVETWQSFYRKKLKEVWKPAV

The molecules below were run on HBEGF locus (assay: not given). Conditions: HEK293T; dCasX491 fusion, scaffold 174 spacer 34.28; 2 ng/ml diphtheria toxin for 48 hours.
Assay type: cell-based, human

Molecule	log 2 (fold change) of abundance before and after selection
B1	highest log 2 (fold change)

Same assay, conditions: high-throughput screen of dXR repression of the HBEGF gene; abundance of each domain in the library before and after diphtheria toxin selection; HEK293T cells

Molecule	Log2 (fold change)
B2	2.3971
B3	3.3903
B4	2.7105
B5	3.4277
B6	3.4462
B7	2.3399
B8	2.7531
B9	3.5141
B10	2.8865
B11	3.1155
B12	2.4217
B13	2.9023
B14	3.4786
B15	3.5957
B16	2.7434
B17	2.0979

Same assay, conditions: high-throughput screen of dXR repression of the HBEGF gene; change in abundance of each domain in the library before and after diphtheria toxin selection

Molecule	Log2 (fold change)
B1	5.4323
B18	4.0496

The molecules below were run on B2M locus (assay: B2M repression (HLA-negative cells by flow cytometry) in HEK293T cells transfected with LTRP plasmids). Conditions: HEK293T, 50 days post-transfection, spacer 7.37 (B2M).
Assay type: cell-based, human
Method: Each construct was tested in triplicate.
Each construct was tested in triplicate. […] Cells were harvested for repression analysis at day 5, day 12, day 21, and day 51 post-transfection.
Each construct was tested in triplicate. […] Cells were harvested for repression analysis at day 8, day 13, day 20, and day 27 post-transfection. […] In addition, cells were also harvested on day 5 post-transfection for gDNA extraction for bisulfite sequencing to assess off-target methylation at the non-targeted VEGFA locus, which was performed using similar methods as described in Example 13.
HEK293T cells were transfected as described in Example 14, except that the cells were transfected with 50 ng each of a plasmid encoding the LTRP construct and a plasmid encoding the gRNA. […] 72 of the 95 top repressor domains were assessed together in one experiment where B2M expression was measured at 7, 14, 19, and 26 days after transfection, and the data shown in Tables 57-60.

Molecule	% HLA-negative cells (mean)
B19	0.49%

Same assay, conditions: HEK293T, 73 days post-transfection, spacer 7.37 (B2M)

Molecule	% HLA-negative cells (mean)
B19	0.83%

Same assay, conditions: HEK293T; LTRP5 without ADD, scaffold 316 spacer 7.165; days 6/7 to 26/27; vs LTRP5-ZIM3

Molecule	B2M repression by LTRP5 constructs with enhanced repressor domains
B1	most effective repressor domains
B18	most effective repressor domains
